Reference: a protein production outcome set (Wang et al. 2014)

Test: label from the status in PepcDB records

Sequence | protein production
MIRYLALLALLAAPWVQAADALHDDLPLKYLEQAPAEPRNQPLVIFLHGYGSNEADLFGLRQRLPASYTYVSVRAPQTLEEGSYQWFHRKGQGPYDGVTSELASGAELIGQFVRAALAKYQTQPDKVVLVGFSQGAVMAYEVGLRHPQSVRGIAALSGKILPVLAAQVKNNPSLQRLGIFIGHGTLDQRLPYSDAVDAQRLLQGLSLQPQFHAYPGLGHSISEAEIDDLKGWLQGLNP | failed
MISANDLSPAELAALLHFHADAGVEWLLEEEAIDRFAEFEAMKAARRPAAQAQQQRPAAGERPAPGQAQVRPNAAVRPAPAERAASGPQPAIPDGEAVQQARFVAETARSLVELKTAIESFNGCNLKHSARSTIFASGDAESGIMVIGSAPSAEDDREGMPFSGKSGQLFDKMLAAIGLTRSAILLTQVIPWRPPGNRAPSAAEMDICRPFIERQIALAEPKAILLLGNFSARFFFGENDTIHGLRGRWKEIAAADCVIPAIASLHPQDLLTAPVNKRLAWNDLLAFQAKLKSLSLLRN | failed
MISKFIEKRMLNMLDEWYSAMSKRKMNHVCTLKEKIDQHLPKIKKNTKLWMRYQLFQARHQLLFENQNGLDSLFDGLYGLEDKMDDELKYYLYFFSGLYEMVKTAPKHAVHHFKKAEQYLAAIHNTFEAADLYYQTAGAYYLMKSPPLSVQYVKKALHIYLHQFGYIKKVITCKLLLAVNYIDQERYEKAEQLFKEIIKKTQQLHDENLLCHAYYNLGFLKATEKKDQEALLYFRKVLKNQEFEMNSPVSYLHCVYESVRALFKTGNITEAKAVLQKGKELSEKVDIQTIYLKLKTLEALYTSAEDPYEQLLEYVLELEKIEAWVDLEVLLEDITEYYKKKDDFEKAAFFIMRG | failed
MISNEEMKSGNILNLFCKFALPAVVGVLIAGIQGIIDGFFIGNAIGSHGLAGITLAYPPYLAIIAAGIIIGIGSSSLIALRLGEGKTGEALEIMNNAFPLCLIAGAVFTAGGLIFCRTSISLLGTNGPALSLASEYLHIIFAGSVFMILAIALDPLVRNNGKPRLCMKIMVAGVLANIILDYLLVMHMEMGMSGAATATVLSFVLPAVLLTHHLLSSQAKLRLRIKSMRVKTATALKILNAGVPSFVMQMSFALMLFVQNYMLLRYGSELAVSAYGVIGYIFSIFYMLFEGIALGVQPIIGFNYGAGNYGRVLKTLKLTILSCTLIGALGFTLIYLFPESLVQIFSQRDSELLDATLQGMDIFMFSLLVEGTVLLTAVYYQSINRVRAALFIHLGKIFIFLFPLLFILPHFFDLNGVWAASPATEYLMAAVVMVMLSKEFDFLRNSRKVEIKQPVTLKITSEVTSKHETSASRNTVKTGNEECTGFIPFKHTEREAS | failed
MISNFIKRAITGILFVAILVGCILYNSFSFGILFMAISALTIYEFGQLINSRAEGVNVNKTIIMLGGAYLFLAVMGFCIDAADSKIFIPYLLLLLYLMISELYLKKASSMLNWAYSMLSQLYIGLPFALLNVLAFHTDPEYSSVSYNPILPLSIFIFLWLSDTGAYCVGSLIGKHRLFERISPKKSWEGSIGGGVVAIGASFVLAHYFTIMSMWEWAGLALVVVVFGTWGDLTESLLKRQLHVKDSGTILPGHGGMLDRFDSALMAIPAAVFYLYALTWF | failed
MISNKRRPKIKIWNKEQMALYLKAIKKDRLYAAFVTDSKSGLRKSELLALRWSDIDFSTGLTKIERGWVRSPKGTLYLSDLKSENSERTLVFSTDLLKVLLEHKSRQDEEKKTAGKNYIDNGLVFCREDGSYINPSTFTRRHYDLTAKAKLPRISVHALRHSISTALLESGKVDLKQIQEMLGHKDISTTGNYYTDVLERMKQKTSELIDNLIQTELEHHHHHH | failed
MISNNTRRVYRISFSFFEQYCLEHNLQSLPADPRSIISFIGHQKELLQASTGMQLSKQTLTTRIAAIRFYHIQAGFPTPTEHPQVIRVMRGLSRNHHRLVQDYDQQPLEHHHHHH | failed
MISPELVKEALKKKKVRSEEAFGLEYLRFNDDYKDIPRGTAIFKDFIIWGYPHIGRIFLLETGLREQFEAPFWVEEKVDGYNTRIFKYGDNYYALSRGGFICPFTTDRLPDLIDLRILDENPDLVICAEVAGPENPYIEESPPYVKEDVQLFVFDFMKKNEQGFLSQEEKMELIEKYNLPHVEILGRFTASEEGIKKIKEILKRFNEEGREGVVFKEDSERNKRAKYITSYANLMDIKTNAKNMLQLPPEYYTNRILRLVLFMYEEGLKTTEHLYEELGRAFIDGLFQAIEQFEKEHKVYKTFTCKFRKKENAIALLELLSKTSKHIQVKERRLEKEGDYWRLEFDKVFLNMTGLLGHLLSGGIVYD | not failed
